The labels stand for the following.
B1: Gal4-Cdc27-273-352 (wild type) [S. pombe] / LexA-Pol1-278-527 [S. pombe] (parent complex)
chain 1: TEAKSAAPDEPQEIIKSVSGGKRRGKRKVKKYATTKDEEGFLVTKEEEVWESFSEDENISTGTSNVVRNKPTTVNIATKK
chain 2: PLSPMTPLSSELDVSAFSEINSKIKNVDVPASSYSSPISKVSPSDVTEEDGSLFFFWMDYTEMYGSLCLFGKVYDKATKQYVSCFLKVDGIMRSLYFLPRPSSSSVSEDSIAAQTKDVYDEVANLLSKRGVKEWKSRVSKYKYAFELEDVPRTADYLEVIYSYSYPALPTDLTGSSFSHVFGTNTALFEQFVLSRRVMGPCWLKIQQPNFDAVKNASWCRVEIGCSSPQNISVSFEKNEITSKTPPMTVM

From paper PMC545490, “Mapping and mutation of the conserved DNA polymerase interaction motif (DPIM) located in the C-terminal domain of fission yeast DNA polymerase δ subunit Cdc27” (BMC Molecular Biology, 2004) come the findings set out here.

This assay covers variants of B1. Put plainly: yeast two-hybrid, β-galactosidase activity in liquid cultures; parent: 150; read off a plot.
As for chain 1 TEAKSAAPDEPQEIIKSVSGGAAAGKRKVKKYATTKDEEGFLVTKEEEVWESFSEDENISTGTSNVVRNKPTTVNIATKK [chain 1 K22A, chain 1 R23A, chain 1 R24A], the response is ~46 Miller units.

As to chain 1 TEAKSAAPDEPQEIIKSVSGGKRRGKRKVAAYATTKDEEGFLVTKEEEVWESFSEDENISTGTSNVVRNKPTTVNIATKK [chain 1 K30A, chain 1 K31A], the response was ~35 Miller units.
